Measured values taken from the supplement of paper PMC10219994.
± gives the standard deviation of the averaged measurements.

B1: library; a variant is named by its letters at N, in order (parent)
chain: GAGACCGCAACTGAAAAGTTGTGGNNNNNATAGTGAGTCGCTGCCTGCAAAGACACAACT

Variants of: B1
Assay: ligation selection enrichment (abundance after / before one-round selection) (fold); higher = more template-directed ligation activity
Settings: with T7Psub CACGGAUGCUAAUACGACUCACUAUA; MgCl2 25 mM; 42 °C; 4 h; pH 8.5
Outline: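 RNA ligase library with five randomized core positions (0.75 μM, T7-transcribed) was reacted with RNA substrate (6 μM) in 50 mM EPPS pH 8.5, 25 mM MgCl2 at 42 °C for 4 h, in two independent experiments. Ligated products were PAGE-purified, reverse transcribed, barcoded by PCR and MiSeq-sequenced. Reads with quality score ≥30 at all randomized positions were counted. Enrichment was abundance after ligation divided by abundance before ligation.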

Variant | ligation selection enrichment
CACGT | 0.156 ± 0.046
CACGC | 0.163 ± 0.014
CTCCG | 0.347 ± 0.032
CGATC | 0.294 ± 0.018
CTCGA | 0.501 ± 0.012
CTCGC | 0.141 ± 0.0066
CTGGG | 0.152 ± 0.051
AGCGT | 0.191 ± 0.054
ACTGT | 0.13 ± 0.074
TCCCC | 0.279 ± 0.026
AGAAA | 0.306 ± 0.043
AGAAG | 0.4 ± 0.033
AGAAC | 0.267 ± 0.06
AGAAT | 3.78 ± 0.51
ATTCA | 0.611 ± 0.08
AGAGT | 0.253 ± 0.024
AGAGC | 0.196 ± 0.028
CGAAA | 0.31 ± 0.015
CGAAC | 0.246 ± 0.0029
CGAAT | 2.11 ± 0.22
TGTGC | 0.151 ± 0.015
TGGTA | 0.325 ± 0.017

Variant | ligation selection enrichment
GTGAT | 89.4 ± 3
AAACA | 0.177 ± 0.013
TCATT | 0.327 ± 0.04
TCTTA | 0.122 ± 0.024
AGTAG | 1.697 ± 0.012
TAACG | 0.8672 ± 0.0053
GAGCT | 0.597 ± 0.27
GAGCA | 0.241 ± 0.082
GCGGA | 0.334 ± 0.035
AGGCA | 0.255 ± 0.066
ACGGG | 0.165 ± 0.012
GCCAT | 1.25 ± 0.34
GTTGG | 0.739 ± 0.059
GGTGA | 0.641 ± 0.064
AAATG | 0.495 ± 0.067
AAATC | 0.171 ± 0.01
CCTCG | 0.55 ± 0.064
ACCCG | 0.752 ± 0.054
ACCCT | 0.379 ± 0.15
GCGCA | 0.289 ± 0.025
GCTTT | 0.4952 ± 0.0042
GCTTG | 0.955 ± 0.16

Variant | ligation selection enrichment
GCTTC | 0.176 ± 0.038
GCTTA | 0.21 ± 0.0056
TTCTC | 0.0957 ± 0.032
AGCTA | 0.209 ± 0.011
GGCCA | 0.241 ± 0.083
CCGAG | 0.853 ± 0.037
GAGTA | 0.27 ± 0.053
GAGTC | 0.168 ± 0.0064
TTTCA | 0.268 ± 0.026
GTATA | 0.2557 ± 0.00086
AACCG | 0.526 ± 0.039
ATCGA | 3.45 ± 0.064
ATCGT | 0.723 ± 0.28
CACAG | 0.134 ± 0.035
TAAGA | 0.977 ± 0.16
ATCAC | 0.175 ± 0.028
ACCGC | 0.182 ± 0.016
TCGTC | 0.202 ± 0.02
CAGGA | 0.231 ± 0.013
TAAAC | 0.176 ± 0.054
TTAGT | 0.265 ± 0.074
CAAGG | 0.2 ± 0.024

Variant | ligation selection enrichment
GGAGC | 0.135 ± 0.022
TACCG | 0.574 ± 0.048
TATCC | 0.323 ± 0.051
TATCT | 0.379 ± 0.13
CATCT | 0.541 ± 0.19
ATCTG | 0.796 ± 0.041
CCTGG | 0.381 ± 0.061
CCTGT | 0.138 ± 0.07
GACGG | 0.409 ± 0.066
CACTT | 0.105 ± 0.047
TTGGG | 0.218 ± 0.023
CGTTG | 2.11 ± 0.56
TGGGC | 0.171 ± 0.022
TGGGA | 0.263 ± 0.038
GCAAA | 0.304 ± 0.025
AGTCC | 0.157 ± 0.034
CTTAA | 0.257 ± 0.012
GGAAA | 0.282 ± 0.011
TAGGT | 0.115 ± 0.046
GTCTT | 0.114 ± 0.069
CCACC | 0.0951 ± 0.0078
ATATC | 0.177 ± 0.029

Variant | ligation selection enrichment
GAGGC | 0.17 ± 0.017
CGGTC | 0.1 ± 0.011
GGACC | 0.232 ± 0.06
TGACT | 0.683 ± 0.3
ACGTT | 0.149 ± 0.0019
ACGTA | 0.221 ± 0.0031
GGCGG | 0.252 ± 0.022
GGCGA | 1.52 ± 0.26
AAAAC | 0.17 ± 0.018
CGTGG | 0.261 ± 0.044
CGTGA | 0.58 ± 0.047
CTCAG | 0.169 ± 0.011
GTAGT | 0.166 ± 0.037
GAAAT | 0.55 ± 0.2
CGAGC | 0.246 ± 0.036
GAATC | 0.205 ± 0.079
ACCAC | 0.165 ± 0.0072
TGATT | 2.4 ± 0.61
TGATG | 0.708 ± 0.08
CGCTT | 0.126 ± 0.017
GCAGC | 0.14 ± 0.021
ACTAG | 0.403 ± 0.037

Variant | ligation selection enrichment
CGGAG | 0.459 ± 0.021
GGATC | 0.188 ± 0.03
AAGAT | 16.6 ± 5
TGAAA | 0.326 ± 0.022
GACCC | 0.238 ± 0.057
TTTGA | 0.78 ± 0.039
TTTGT | 0.164 ± 0.11
TGGCT | 0.75 ± 0.2
AGACG | 0.532 ± 0.039
AGACT | 0.736 ± 0.21
TCACG | 0.341 ± 0.018
GTGTC | 0.144 ± 0.015
TGTCG | 0.653 ± 0.0083
TGTTT | 0.468 ± 0.2
TGTTG | 1.1 ± 0.08
CGGCG | 0.328 ± 0.1
AGCAC | 0.319 ± 0.037
CGACG | 0.671 ± 0.15
AGATT | 1.66 ± 0.48
TTGCG | 0.391 ± 0.012
TTGCT | 0.947 ± 0.32
